Values joined by “and” are separate entries in the source; they are usually repeats but may differ in a detail not shown here. Equal values may be shown once.
Conditions: Danio rerio; pH 8; Thermal; DSC; Tris 20 mM; KCl 0.6 M; transition: 3; reversible: no

Chain of Tropomyosin alpha-1 chain wild type, P13104 (P13104 whole entry): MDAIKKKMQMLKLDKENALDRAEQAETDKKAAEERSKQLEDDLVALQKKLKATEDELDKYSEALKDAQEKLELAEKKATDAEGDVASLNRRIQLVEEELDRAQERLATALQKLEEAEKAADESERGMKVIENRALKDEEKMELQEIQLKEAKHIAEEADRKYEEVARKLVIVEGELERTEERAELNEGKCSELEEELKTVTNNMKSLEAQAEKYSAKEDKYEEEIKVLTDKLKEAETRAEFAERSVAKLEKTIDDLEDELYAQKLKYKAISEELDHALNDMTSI

Substance: Tropomyosin alpha-1 chain wild type, P13104
- unfolding enthalpy (van 't Hoff): 118 kcal/mol and 124 kcal/mol and 151 kcal/mol
